According to US20210130436A1 (published 2021):
Blank lines part the entries; values can stand above or below the binder they belong to.

Experiments:
[1] = molecular target: T1, CD28 on Jurkat/IL2 reporter cells (human, UniProt P10747 19-220); assay: flow cytometry, Jurkat cells (CD28)
T1 construct: whole, on cells; Endogenous CD28 of Jurkat cells; also called Jurkats (CD28)

CD96 = molecular target: T2, CD96 (UniProt P40200 22-585, limits assumed); assay: flow cytometry, Fc fusion at 100 nM, CD96-transfected cells
T2 construct: whole, on cells
T2 sequence (looked up): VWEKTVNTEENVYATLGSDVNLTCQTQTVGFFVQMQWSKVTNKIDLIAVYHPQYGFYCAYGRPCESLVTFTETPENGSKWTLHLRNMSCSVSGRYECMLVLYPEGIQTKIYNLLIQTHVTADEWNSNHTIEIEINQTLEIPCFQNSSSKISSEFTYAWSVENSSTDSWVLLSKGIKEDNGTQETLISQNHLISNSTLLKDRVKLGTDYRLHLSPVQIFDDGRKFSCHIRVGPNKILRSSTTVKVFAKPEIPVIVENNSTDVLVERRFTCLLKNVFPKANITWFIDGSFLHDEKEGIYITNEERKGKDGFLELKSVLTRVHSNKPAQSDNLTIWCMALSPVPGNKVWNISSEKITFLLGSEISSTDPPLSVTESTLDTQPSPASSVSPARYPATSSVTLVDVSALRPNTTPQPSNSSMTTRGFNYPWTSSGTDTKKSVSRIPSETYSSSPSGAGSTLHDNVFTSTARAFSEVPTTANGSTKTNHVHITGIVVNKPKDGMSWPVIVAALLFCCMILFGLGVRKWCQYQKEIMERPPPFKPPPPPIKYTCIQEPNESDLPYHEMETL

CD226 = molecular target: T3, CD226 (Homo sapiens (Human), UniProt Q15762 19-336); assay: flow cytometry, Fc fusion at 100 nM, CD226-transfected cells
T3 sequence: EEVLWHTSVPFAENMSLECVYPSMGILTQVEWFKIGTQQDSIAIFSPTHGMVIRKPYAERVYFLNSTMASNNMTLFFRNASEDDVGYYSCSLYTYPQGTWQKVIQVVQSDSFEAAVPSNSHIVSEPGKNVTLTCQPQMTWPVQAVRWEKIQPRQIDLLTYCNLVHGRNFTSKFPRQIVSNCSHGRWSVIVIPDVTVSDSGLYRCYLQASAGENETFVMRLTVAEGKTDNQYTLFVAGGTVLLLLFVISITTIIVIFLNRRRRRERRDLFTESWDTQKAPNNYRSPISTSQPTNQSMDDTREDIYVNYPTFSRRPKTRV

[2] = molecular target: T4, CD28 endogenously expressed on Jurkat/IL2 reporter cells (human, UniProt P10747 19-220); assay: flow cytometry, Jurkat cells (CD28)
T4 construct: also called Jurkats (CD28)

[3] = molecular target: T5, human PD-L1, full-length, on CHO cells (human, UniProt Q9NZQ7 19-290); assay: flow cytometry; PD-L1 MFI over CD28 MFI
T5 construct: also called huPD-L1; CD274

[4] = molecular target: T6, human CTLA4 (CTLA-4), full-length, on CHO cells (human, UniProt P16410 36-223); assay: flow cytometry, CHO cells stably expressing CTLA4
T6 construct: also called huCTLA4

[5] = molecular target: T5, human PD-L1, full-length, on CHO cells; assay: flow cytometry, CHO cells stably expressing PD-L1
[6] = molecular target: T6, human CTLA4 (CTLA-4), full-length, on …; assay: flow cytometry, CHO/CTLA4 cells; MFI relative to WT CD80 ECD-Fc
[7] = molecular target: T5, human PD-L1, full-length, on CHO cells; assay: flow cytometry, CHO/PD-L1 cells; MFI relative to WT CD80 ECD-Fc
[8] = molecular target: T4, CD28 endogenously expressed on …; assay: flow cytometry, Jurkat cells (CD28); MFI relative to WT CD80 ECD-Fc
[9] = molecular target: T7, human PD-L1 (full-length, expressed on CHO cells) (human, UniProt Q9NZQ7 19-290); assay: flow cytometry, CHO cells expressing huPD-L1, PE anti-human Fc
T7 construct: also called huPD-L1; CD274

[10] = molecular target: T8, CD28 (endogenously expressed on Jurkat/IL2 reporter cells) (human, UniProt P10747 19-220); assay: flow cytometry, Jurkat/IL2 reporter cells (endogenous CD28), PE anti-human Fc
T8 construct: Endogenous CD28 of Jurkat cells; also called human CD28

T5 sequence (Q9NZQ7 19-290): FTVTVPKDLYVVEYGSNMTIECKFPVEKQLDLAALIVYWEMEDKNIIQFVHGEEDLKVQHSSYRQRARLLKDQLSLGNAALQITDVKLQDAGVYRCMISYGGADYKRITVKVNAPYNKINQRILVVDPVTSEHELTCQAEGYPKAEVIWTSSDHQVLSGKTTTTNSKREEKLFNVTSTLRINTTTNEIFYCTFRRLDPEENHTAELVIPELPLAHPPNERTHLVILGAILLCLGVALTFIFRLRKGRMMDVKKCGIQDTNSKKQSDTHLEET
T6 sequence (P16410 36-223): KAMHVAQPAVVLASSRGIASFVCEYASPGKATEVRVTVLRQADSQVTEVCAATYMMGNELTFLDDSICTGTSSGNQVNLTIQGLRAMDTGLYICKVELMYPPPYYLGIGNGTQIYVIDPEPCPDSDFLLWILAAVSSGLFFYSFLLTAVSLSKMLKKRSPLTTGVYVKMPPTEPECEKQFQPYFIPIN
T7 sequence (Q9NZQ7 19-290): as the sequence (Q9NZQ7 19-290) above

- MFI at 33.3 nM [1]: 43 MFI
B1: WT CD80 ECD-Fc H22.6 (Fc fusion, not shown: a dimerising Fc or GST)
chain: VIHVTKEVKEVATLSCGHNVSVEELAQTRIYWQKEKKMVLTMMSGDMNIWPEYKNRTIFDITNNLSIVILALRPSDEGTYECVVLKYEKDAFKREHLAEVTLSVKADFPTPSISDFEIPTSNIRRIICSTSGGFPEPHLSWLENGEELNAINTTVSQDPETELYAVSSKLDFNMTTNHSFMCLIKYGHLRVNQTFNWNTTKQEHFPDN
notes: Control; The token H22.6 is not explained

- MFI at 100 nM (CD96): 1560 MFI
B2: variant CD155 IgV-Fc L104E (Fc fusion, not shown: a dimerising Fc or GST)
chain: WPPPGTGDVVVQAPTQVPGFLGDSVTLPCYLQVPNMEVTHVSQLTWARHGESGSMAVFHQTQGPSYSESKRLEFVAARLGAELRNASLRMFGLRVEDEGNYTCEFVTFPQGSRSVDIWLRVL

- MFI at 100 nM (CD96): 1860 MFI
- MFI at 100 nM (CD226): 2430 MFI
B3: variant CD155 IgV-Fc S52M/V57L (Fc fusion, not shown: a dimerising Fc or GST)
chain: WPPPGTGDVVVQAPTQVPGFLGDSVTLPCYLQVPNMEVTHVSQLTWARHGEMGSMALFHQTQGPSYSESKRLEFVAARLGAELRNASLRMFGLRVEDEGNYTCLFVTFPQGSRSVDIWLRVL

- MFI at 100 nM (CD96): 1540 MFI
- MFI at 100 nM (CD226): 3790 MFI
B4: variant CD155 IgV-Fc L104Q (Fc fusion, not shown: a dimerising Fc or GST)
chain: WPPPGTGDVVVQAPTQVPGFLGDSVTLPCYLQVPNMEVTHVSQLTWARHGESGSMAVFHQTQGPSYSESKRLEFVAARLGAELRNASLRMFGLRVEDEGNYTCQFVTFPQGSRSVDIWLRVL

- MFI at 100 nM (CD96): 1700 MFI
- MFI at 100 nM (CD226): 2450 MFI
B5: variant CD155 IgV-Fc S42G (Fc fusion, not shown: a dimerising Fc or GST)
chain: WPPPGTGDVVVQAPTQVPGFLGDSVTLPCYLQVPNMEVTHVGQLTWARHGESGSMAVFHQTQGPSYSESKRLEFVAARLGAELRNASLRMFGLRVEDEGNYTCLFVTFPQGSRSVDIWLRVL

- MFI at 100 nM (CD96): 1480 MFI
- MFI at 100 nM (CD226): 2150 MFI
B6: variant CD155 IgV-Fc S42C/S52L (Fc fusion, not shown: a dimerising Fc or GST)
chain: WPPPGTGDVVVQAPTQVPGFLGDSVTLPCYLQVPNMEVTHVCQLTWARHGELGSMAVFHQTQGPSYSESKRLEFVAARLGAELRNASLRMFGLRVEDEGNYTCLFVTFPQGSRSVDIWLRVL

- MFI at 33.3 nM [2]: 309 MFI
- Ratio of PDL1:CD28 [3]: 6.1 ratio
- MFI at 33.3 nM [4]: 30800 MFI
- MFI at 33.3 nM [5]: 1900 MFI
- Fold change to WT CD80 [6]: 0.8 fold
- Fold change to WT CD80 [7]: 14.8 fold
- Fold change to WT CD80 [8]: 0.4 fold
B7: variant CD80 IgV-Fc M47L (Fc fusion, not shown: small tags and cut ends; a dimerising Fc or GST)
chain: VIHVTKEVKEVATLSCGHNVSVEELAQTRIYWQKEKKMVLTMMSGDLNIWPEYKNRTIFDITNNLSIVILALRPSDEGTYECVVLKYEKDAFKREHLAEVTLSVKAD

- MFI at 33.3 nM [4]: 50100 MFI
- MFI at 33.3 nM [5]: 3970 MFI
B8: variant CD80 IgV-Fc E35D/D46V (Fc fusion, not shown: small tags and cut ends; a dimerising Fc or GST)
chain: VIHVTKEVKEVATLSCGHNVSVEELAQTRIYWQKDKKMVLTMMSGVMNIWPEYKNRTIFDITNNLSIVILALRPSDEGTYECVVLKYEKDAFKREHLAEVTLSVKAD

- MFI at 33.3 nM [9]: 36900 MFI
B9: variant CD80 IgV-Fc E35D/M47I/K54R/L85E (Fc fusion, not shown: a dimerising Fc or GST)
chain: VIHVTKEVKEVATLSCGHNVSVEELAQTRIYWQKDKKMVLTMMSGDINIWPEYRNRTIFDITNNLSIVILALRPSDEGTYECVVEKYEKDAFKREHLAEVTLSVKAD

- MFI at 33.3 nM [9]: 44400 MFI
- MFI at 33.3 nM [10]: 258 MFI
B10: variant CD80 IgV-Fc Q33R/E35D/K37E/M47V/L85Q (Fc fusion, not shown: a dimerising Fc or GST)
chain: VIHVTKEVKEVATLSCGHNVSVEELAQTRIYWRKDKEMVLTMMSGDVNIWPEYKNRTIFDITNNLSIVILALRPSDEGTYECVVQKYEKDAFKREHLAEVTLSVKAD

- MFI at 33.3 nM [4]: 49700 MFI
- MFI at 33.3 nM [5]: 3900 MFI
B11: variant CD80 IgV-Fc D46V/M47L (Fc fusion, not shown: small tags and cut ends; a dimerising Fc or GST)
chain: VIHVTKEVKEVATLSCGHNVSVEELAQTRIYWQKEKKMVLTMMSGVLNIWPEYKNRTIFDITNNLSIVILALRPSDEGTYECVVLKYEKDAFKREHLAEVTLSVKAD
